Patent US20090298167A1 (Pfizer, published 2009)
Positions count from the first letter of the chain named. Numbers in names are those of the source.

T1: human IL-2Rβ (human, UniProt P14784 27-239)
T1 construct: Bought
T1 sequence (looked up): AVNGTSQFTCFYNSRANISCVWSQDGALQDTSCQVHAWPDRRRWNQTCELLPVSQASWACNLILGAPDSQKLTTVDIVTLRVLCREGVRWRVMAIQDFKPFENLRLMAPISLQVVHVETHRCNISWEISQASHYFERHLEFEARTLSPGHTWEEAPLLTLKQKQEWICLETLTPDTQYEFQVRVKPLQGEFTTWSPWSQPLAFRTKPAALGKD

T2: human gamma common chain expressed on CHO cells (human, UniProt P31785 23-369)
T2 construct: whole, on cells; Control protein; also called human IL-2R-γ common subunit; human gamma (γ) common chain
T2 sequence (looked up): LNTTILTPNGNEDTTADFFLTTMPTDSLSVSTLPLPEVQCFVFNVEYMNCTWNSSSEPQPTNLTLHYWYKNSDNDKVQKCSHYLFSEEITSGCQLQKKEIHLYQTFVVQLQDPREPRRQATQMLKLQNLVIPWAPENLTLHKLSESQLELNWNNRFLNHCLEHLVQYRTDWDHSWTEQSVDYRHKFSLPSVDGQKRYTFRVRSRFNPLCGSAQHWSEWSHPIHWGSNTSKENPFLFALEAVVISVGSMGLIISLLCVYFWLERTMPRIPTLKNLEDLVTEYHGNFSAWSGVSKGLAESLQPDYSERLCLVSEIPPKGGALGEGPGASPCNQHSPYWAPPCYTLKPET

B1: AbU (antibody, human IgG1, V domains shown)
VH: QVQLQESGPGLVKPSETLSLTCAVSGYSISSGYYWGWIRQPPGKGLEWIGSISHTGNTYYNPPLKSRVTISVDTSKNQFSLKLSSVTAADTAVYYCARGGGISRPEYWGQGTLVTVSS
VL: SSELTQDPAVSVALGQTVRITCQGDSLRTYYASWYQQKPGQAPVLVIYGKHKRPSGIPDRFSGSSSGNTASLTITGAQAEDEADYYCTTRSNKGNPHVLFGGGTQLTVL
notes: Human IgG1 triple-mutant (L234A, L235A, G237A); Framework limits derived; also called VHP/VL25; VHPTM/VL25
B2: AbQ (antibody, human IgG1, V domains shown)
VH: B1 VH with G99F, G100M, I102F, S103G
VL: B1 VL with T88V, T89A, N92V, K93V
notes: Purified form: human IgG1 double-mutant (L234A, G237A); Framework limits derived; also called VH3/VL2; VH3DM/VL2
B3: murine IL-21R-Fc (Fc fusion, not shown: a dimerising Fc or GST)
chain: not shown
B4: AbG (antibody, human IgG1, V domains shown)
VH: B1 VH
VL: B1 VL with T88V, N92V
notes: Full-length human IgG1 / human lambda, transient, conditioned medium; Framework limits derived; also called VHP/VL18
B5: AbO (antibody, human IgG1, V domains shown)
VH: B1 VH
VL: B1 VL with T88V, N92A
notes: Human IgG1 triple-mutant (L234A, L235A, G237A); Framework limits derived; also called VHP/VL16; VHPTM/VL16
B6: AbL (antibody, human IgG1, V domains shown)
VH: B1 VH with G99F, G100M, I102F, S103G
VL: B1 VL with T88V, S91N, N92R, K93Y
notes: Full-length human IgG1 / human lambda, transient, conditioned medium; Framework limits derived; also called VH3/VL13
B7: AbD (antibody, human IgG1, V domains shown)
VH: B1 VH
VL: B1 VL with T88V, S91N, N92R, K93Y
notes: Full-length human IgG1 / human lambda, transient, conditioned medium; Framework limits derived; also called VHP/VL13

biological target: T3, human IL-21R expressed on cells (human, UniProt Q9HBE5 20-538); experiment: cell-based or functional assay
T3 sequence (Q9HBE5 20-538 limits assumed): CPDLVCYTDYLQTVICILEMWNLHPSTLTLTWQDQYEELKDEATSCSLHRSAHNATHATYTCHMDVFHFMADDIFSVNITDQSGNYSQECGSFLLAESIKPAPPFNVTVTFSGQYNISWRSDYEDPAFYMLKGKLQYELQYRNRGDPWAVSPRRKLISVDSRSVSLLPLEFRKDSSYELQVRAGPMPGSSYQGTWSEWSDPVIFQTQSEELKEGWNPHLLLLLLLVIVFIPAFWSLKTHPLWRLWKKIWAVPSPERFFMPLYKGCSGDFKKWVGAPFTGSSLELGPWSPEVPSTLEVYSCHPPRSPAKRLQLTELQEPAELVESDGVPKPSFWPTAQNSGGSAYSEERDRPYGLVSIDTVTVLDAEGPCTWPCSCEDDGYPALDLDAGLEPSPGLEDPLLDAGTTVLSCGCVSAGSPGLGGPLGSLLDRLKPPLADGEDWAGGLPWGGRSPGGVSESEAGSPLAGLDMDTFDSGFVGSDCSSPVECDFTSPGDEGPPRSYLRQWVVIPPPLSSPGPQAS

Neutralization of B cell proliferation IC50 | Binder
0.13 nM | B1
0.16 nM | B2

biological target: murine IL-21 (murine, UniProt Q9ES17 18-146); experiment: cell-based or functional assay

Murine IL-21R-BaF3 Neutralization IC50 | Binder
0.04 nM | B3

biological target: T3, human IL-21R expressed on cells; experiment: cell-based or functional assay; remark: another data set of the same source

Human IL-21R-BaF3 Proliferation IC50 | Human IL-21R-TF1 Proliferation IC50 | Binder
0.77 nM | 3.84 nM | B4
0.52 nM | 2.91 nM | B5
0.68 nM | 4.25 nM | B6
0.91 nM | 2.67 nM | B7
0.73 nM | 3.13 nM | B1
0.68 nM | 4.62 nM | B2

biological target: T4, murine IL-21R expressed on cells (murine, UniProt Q9JHX3 20-529); experiment: cell-based or functional assay
T4 sequence (Q9JHX3 20-529 limits assumed): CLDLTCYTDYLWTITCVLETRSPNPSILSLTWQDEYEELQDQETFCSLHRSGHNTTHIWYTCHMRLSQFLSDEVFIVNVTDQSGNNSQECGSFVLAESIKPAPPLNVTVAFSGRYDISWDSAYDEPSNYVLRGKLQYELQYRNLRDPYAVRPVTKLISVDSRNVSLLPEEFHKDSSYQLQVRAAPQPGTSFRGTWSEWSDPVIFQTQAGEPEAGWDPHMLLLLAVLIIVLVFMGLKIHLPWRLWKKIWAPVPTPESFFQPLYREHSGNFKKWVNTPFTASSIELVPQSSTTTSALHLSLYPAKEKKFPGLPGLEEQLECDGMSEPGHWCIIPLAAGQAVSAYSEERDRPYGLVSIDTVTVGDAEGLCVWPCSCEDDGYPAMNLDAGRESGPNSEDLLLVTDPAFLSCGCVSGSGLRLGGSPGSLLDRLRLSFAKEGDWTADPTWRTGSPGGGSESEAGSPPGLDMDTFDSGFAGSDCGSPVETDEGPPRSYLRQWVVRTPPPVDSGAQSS

Murine IL-21R-BaF3 Proliferation IC50 | Binder
0.07 nM | B4
0.065 nM | B5
0.227 nM | B6
0.01 nM | B7
0.184 nM | B1
0.153 nM | B2

biological target: T5, rat IL-21R expressed on cells (rat); experiment: cell ELISA: CHO cells transiently expressing the receptor, antibody in conditioned medium, HRP anti-human IgG, A450
T5 construct: whole, on cells; Transiently transfected CHO-PA-Dukx cells
Method: (§1) A subset of binding proteins was tested for binding to rat, cynomolgus monkey, human IL-21R, or human IL-2R-γ common subunit expressed transiently on the surfaces of CHO-PA-Dukx cells. Cells were transfected 48 hr prior to the assay. On the day of the assay, cells were washed gently 5× in PBS containing 0.9 mM CaCl₂ and 0.45 mM MgCl₂ (PBS/CaMg) on an automated plate washer (Titertek, Huntsville, Ala.), and blocked for 1 hr at RT in PBS/CaMg/5% nonfat dry milk. Conditioned media from transiently expressed anti-IL-21R IgGs were serially diluted in blocking buffer and added to the cells in the blocked plates for 1 hr at RT. Cells were washed 5× with PBS/CaMg and then incubated with horseradish peroxidase-conjugated anti-human IgG for 1 hr at RT. Cells were then washed 10× in PBS/CaMg and all of the wash buffer was removed. Cells were incubated with 100 μl TMB until the color reaction reached saturation, stopped with 100 μl of 0.18 M H₂SO₄, and read at A450 on a Perkin Elmer ENVISION™ plate reader.

EC50 (read off the curve) | Binder
~0.8 nM | B4

biological target: T6, cynomolgus monkey IL-21R expressed on CHO cells (cynomolgus monkey); experiment: as above
T6 construct: whole, on cells
Method: as §1

EC50 (read off the curve) | Binder
~0.8 nM | B6
~0.6 nM | B2

biological target: T1, human IL-2Rβ; experiment: BIACORE: antibody captured on anti-human IgG, 50 nM analyte injected
Method: (§2) The specificity of binding of a subset of transiently expressed anti-IL-21R binding proteins (here antibodies) was tested on a BIACORE™ 2000 surface plasmon resonance instrument. Anti-human-IgG, anti-murine immunoglobulin antibodies, and murine IL-21R-H/F were immobilized onto a research-grade carboxymethyl-dextran chip (CM5) using standard amine coupling. The sensor chip surface was activated with EDC/NHS for 7 min at a flow rate of 20 μl/min. The first flow cell was used as reference surface to correct for bulk refractive index, matrix effects, and nonspecific binding. […] Remaining activated groups were blocked with 1.0 M ethanolamine (pH 8.0). The molecular weights of the anti-human IgG and the anti-murine IgG were both 150 kD, and the molecular weight of the IL-21R monomer was 27 kD.
(§3) Conditioned media containing anti-IL-21R antibodies and antibody controls (murine anti-human IL-2Rβ and murine anti-human IL-4R(R&D Systems, Minneapolis, Minn.); human anti-human IL-13 (Wyeth, Cambridge, Mass.)) were diluted in HBS/EP buffer supplemented with 0.2% bovine serum and injected onto all four flow cells of the BIACORE™ chip, capturing 500-700 (RU) of antibody on the species-appropriate capture antibody. Following a 5 sec washing period, 50 nM solutions of a positive control protein (murine IL-21R-H/F), two human proteins related to IL-21R (human IL-2Rβ and human sIL-4R(R&D Systems)), or an unrelated His/FLAG-tagged protein (human IL-13-H/F), were injected over the captured antibodies on the chip. The association and dissociation phases were monitored for 120 and 180 sec, respectively, followed by two 5 μl injections of glycine (pH 1.5) to regenerate a fully active capturing surface. All binding experiments were done at 25° C. in HBS/EP buffer. Blank and buffer effects were subtracted for each sensorgram using double referencing.

binding result | Binder
no binding (tested: 50 nM) | B5
no binding (tested: 50 nM) | B1
no binding (tested: 50 nM) | B2

biological target: T7, human IL-13-His/FLAG (human, UniProt P35225 35-146, limits assumed); experiment: as above
T7 construct: Unrelated His/FLAG-tagged control; also called human IL-13-H/F
T7 sequence (P35225 35-146 limits assumed): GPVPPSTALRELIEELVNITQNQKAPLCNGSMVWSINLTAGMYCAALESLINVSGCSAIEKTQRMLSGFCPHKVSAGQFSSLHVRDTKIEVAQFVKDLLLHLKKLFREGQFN
Method: as §2, §3

binding result | Binder
no binding (tested: 50 nM) | B5
no binding (tested: 50 nM) | B1
no binding (tested: 50 nM) | B2

biological target: T8, human soluble IL-4R (human, UniProt P24394 26-231, limits assumed); experiment: as above
T8 construct: soluble; also called human sIL-4R
T8 sequence (P24394 26-231 limits assumed): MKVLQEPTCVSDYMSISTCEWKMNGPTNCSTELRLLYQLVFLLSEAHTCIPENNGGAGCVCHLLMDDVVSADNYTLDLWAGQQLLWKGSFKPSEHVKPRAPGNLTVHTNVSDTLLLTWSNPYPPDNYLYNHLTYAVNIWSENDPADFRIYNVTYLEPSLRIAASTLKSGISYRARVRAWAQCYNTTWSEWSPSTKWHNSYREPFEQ
Method: as §2, §3

binding result | Binder
no binding (tested: 50 nM) | B5
no binding (tested: 50 nM) | B1
no binding (tested: 50 nM) | B2

biological target: T3, human IL-21R expressed on cells; experiment: cell ELISA on transfected CHO cells, 13 nM IgG
Method: as §1

A450 at 13 nM Ab in cell ELISA | Binder
1.35 A450 | B4
1.11 A450 | B5
1.45 A450 | B6
1.25 A450 | B7
1.29 A450 | B1
1.25 A450 | B2

biological target: T5, rat IL-21R expressed on cells; experiment: cell ELISA on transfected CHO cells, 13 nM IgG
Method: as §1

A450 at 13 nM Ab in cell ELISA | Binder
1.11 A450 | B4
1.1 A450 | B5
1.26 A450 | B6
0.874 A450 | B7
0.927 A450 | B1
1.16 A450 | B2

biological target: T2, human gamma common chain expressed on …; experiment: cell ELISA on transfected CHO cells, 13 nM IgG
Method: as §1

A450 at 13 nM Ab in cell ELISA | Binder
0.108 A450 | B4
0.108 A450 | B5
0.104 A450 | B1
0.125 A450 | B2

biological target: T6, cynomolgus monkey IL-21R expressed on …; experiment: cell ELISA on transfected CHO cells, 13 nM IgG
Method: as §1

A450 at 13 nM Ab in cell ELISA | Binder
1.3 A450 | B4
1.36 A450 | B5
1.51 A450 | B6
1.38 A450 | B7
1.31 A450 | B1
1.31 A450 | B2

biological target: T5, rat IL-21R expressed on cells; experiment: cell-based or functional assay

IC50 (nM) experiment 1, rat T cell proliferation | IC50 (nM) experiment 2, rat T cell proliferation | Binder
173 nM | 105 nM | B1

biological target: T3, human IL-21R expressed on cells; experiment: cell ELISA: CHO cells transiently expressing the receptor, antibody in conditioned medium, HRP anti-human IgG, A450
Method: (§4) FIG. 6 depicts the binding of 21 anti-IL-21R IgGs to CHO cells transiently expressing human IL-21R (FIGS. 6a-c), rat IL-21R (FIGS. 6d-f), cynomolgus monkey IL-21R (FIGS. 6g-i), and human gamma common chain (FIGS. 6j-l). CHO cells were transiently transfected with IL-21R or the control gamma common chain, and binding was detected with HRP-conjugated anti-human IgG in a cell-based ELISA.
as §1

EC50 (read off the curve) | Binder
~0.3 nM | B5
~1 nM | B7

biological target: T6, cynomolgus monkey IL-21R expressed on …; experiment: as above; remark: another data set of the same source
Method: as §4, §1

EC50 (read off the curve) | Binder
~0.8 nM | B1

biological target: T3, human IL-21R expressed on cells; experiment: cell-based or functional assay; remark: another data set of the same source

Neutralization of T cell Proliferation IC50 (nM), human primary CD4+ T cells | Binder
0.06 nM | B5
0.03 nM | B1
0.08 nM | B2

biological target: T4, murine IL-21R expressed on cells; experiment: cell-based or functional assay; remark: another data set of the same source

Neutralization of T cell Proliferation IC50 (nM), murine primary CD8+ T cells | Binder
4.92 nM | B5
1.79 nM | B1
0.85 nM | B2
